{"source": "paper PMC9416547", "about": "(Nucleic Acid Therapeutics, 2022)", "binders": {"B1": {"name": "GST-fused full-length RNase H1 (enzyme, human, UniProt O60930 1-286, looked up)", "chain": "MSWLLFLAHRVALAALPCRRGSRGFGMFYAVRRGRKTGVFLTWNECRAQVDRFPAARFKKFATEDEAWAFVRKSASPEVSEGHENQHGQESEAKASKRLREPLDGDGHESAEPYAKHMKPSVEPAPPVSRDTFSYMGDFVVVYTDGCCSSNGRRRPRAGIGVYWGPGHPLNVGIRLPGRQTNQRAEIHAACKAIEQAKTQNINKLVLYTDSMFTINGITNWVQGWKKNGWKTSAGKEVINKEDFVALERLTQGMDIQWMHVPGHSGFIGNEEADRLAREGAKQSED"}}, "key": {"[1]": {"biological_target": "T1, MBP-tagged NAT10 CTD (541-1025 AA) (UniProt Q9H0A0 541-1025)", "T1 sequence (looked up)": "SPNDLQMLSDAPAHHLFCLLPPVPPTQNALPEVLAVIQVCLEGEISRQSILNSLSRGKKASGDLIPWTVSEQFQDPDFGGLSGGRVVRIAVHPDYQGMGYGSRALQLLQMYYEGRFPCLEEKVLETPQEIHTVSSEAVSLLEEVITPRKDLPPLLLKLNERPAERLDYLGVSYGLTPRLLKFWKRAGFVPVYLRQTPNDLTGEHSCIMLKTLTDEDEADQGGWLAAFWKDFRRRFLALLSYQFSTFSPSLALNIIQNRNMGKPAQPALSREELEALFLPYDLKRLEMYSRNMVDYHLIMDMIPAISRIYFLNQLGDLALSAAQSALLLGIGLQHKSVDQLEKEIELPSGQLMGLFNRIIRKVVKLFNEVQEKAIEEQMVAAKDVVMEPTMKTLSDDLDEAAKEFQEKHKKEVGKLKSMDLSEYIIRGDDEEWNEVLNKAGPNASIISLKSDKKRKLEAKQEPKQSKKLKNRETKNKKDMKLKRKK", "assay": "pull-down"}, "[2]": {"biological_target": "T2, MBP-tagged full-length NAT10 (UniProt Q9H0A0 1-1025)", "T2 sequence (looked up)": "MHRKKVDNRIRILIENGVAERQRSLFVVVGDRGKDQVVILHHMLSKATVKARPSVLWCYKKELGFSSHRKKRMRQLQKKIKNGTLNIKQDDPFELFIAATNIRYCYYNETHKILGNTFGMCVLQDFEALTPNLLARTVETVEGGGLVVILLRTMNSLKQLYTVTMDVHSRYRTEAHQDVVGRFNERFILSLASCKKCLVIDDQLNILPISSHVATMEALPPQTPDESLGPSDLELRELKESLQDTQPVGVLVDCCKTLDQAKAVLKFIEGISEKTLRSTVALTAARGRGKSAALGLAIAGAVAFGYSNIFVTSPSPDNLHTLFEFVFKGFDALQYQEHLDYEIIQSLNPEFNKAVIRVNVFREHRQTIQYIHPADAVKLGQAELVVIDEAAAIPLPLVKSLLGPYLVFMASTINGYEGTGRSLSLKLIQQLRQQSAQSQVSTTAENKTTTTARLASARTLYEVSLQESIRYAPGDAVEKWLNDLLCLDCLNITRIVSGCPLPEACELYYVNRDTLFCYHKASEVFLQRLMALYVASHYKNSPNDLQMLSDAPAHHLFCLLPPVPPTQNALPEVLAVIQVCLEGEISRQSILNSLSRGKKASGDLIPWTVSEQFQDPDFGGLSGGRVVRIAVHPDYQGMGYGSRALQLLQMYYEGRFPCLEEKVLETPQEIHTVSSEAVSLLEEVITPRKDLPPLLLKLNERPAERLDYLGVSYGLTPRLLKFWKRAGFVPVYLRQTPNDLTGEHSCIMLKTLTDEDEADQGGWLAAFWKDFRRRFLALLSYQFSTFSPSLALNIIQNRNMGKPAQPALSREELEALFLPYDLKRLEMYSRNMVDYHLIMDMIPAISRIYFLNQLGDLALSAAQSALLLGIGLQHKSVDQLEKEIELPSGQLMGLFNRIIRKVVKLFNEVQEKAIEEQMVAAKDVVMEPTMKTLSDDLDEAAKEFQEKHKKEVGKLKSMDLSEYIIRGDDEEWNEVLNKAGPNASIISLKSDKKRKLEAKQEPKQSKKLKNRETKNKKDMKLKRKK", "assay": "pull-down"}}, "data": [{"binder": "B1", "values": [{"measurement": "binding result", "setting": "[1]", "result": "binds"}, {"measurement": "binding result", "setting": "[2]", "result": "binds"}]}]}
